Assay results reported in the supplement of paper PMC12042874.
± gives the uncertainty stated by the source.

Assay: amyloid nucleation score (Sup35N fusion, yeast selection) (log enrichment); library NNK2; higher = more nucleation; inactive = no reads after selection
Summary of the method: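 Three technical output replicates were used for random libraries. Psi-negative yeast expressing peptides of 20 random codons fused to Sup35N were induced with 100 μM copper sulfate for 24 hours and grown 7 days at 30°C on medium lacking adenine and uracil, and input and output plasmid inserts were Illumina-sequenced, excluding sequences with under 100 input reads. The nucleation score is the DiMSum log enrichment of output over input reads, centred on the mode score of non-aggregating sequences.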

Substance | amyloid nucleation score
NVLSRYYQPYMAPPENKAWD | -0.277 ± 1
NVLSWKHMRAKGVNWFGGWV | -0.066 ± 0.27
NVLWVDSSLFRNLRPTSERE | 0.276 ± 1
NVMSDYTFANTSITSCCY | -1.26 ± 0.64
NVQRI | -0.399 ± 0.55
NVRTYCGFKSSNIRRWVSRH | inactive
NVTGYFSSYKVVGRMESSYV | 1.73 ± 0.19
NVVFRFVVEYNLWWLSVPDY | -0.578 ± 1.1
NVVTGVASILWGQDHNKSLV | 0.641 ± 0.74
NVWNLQLYPTATCAKYNGAV | 4.13 ± 0.045
NVYIKRIWVPFSP | -0.173 ± 0.36
NWGNDSMRRPCCG | 2 ± 0.088
NWGWSAILKPLRFAVFRPWN | 0.336 ± 0.6
NWIPSI | -0.817 ± 0.41
NWSFASKVGLQMSKHAVTV | 0.13 ± 0.42
NWVNQTS | -1.6 ± 0.48
NYDGCRWWW | inactive
NYKRFCSCMLDH | -0.665 ± 0.63
NYMRVNWLLFSSSQPVICVG | 0.107 ± 0.79
NYRYLLFTSAVDRLQA | -0.117 ± 0.21
NYSDFVVMTRSVLFWYCDQR | -0.424 ± 0.26
NYSDWRVSTEIRSMGRYRPH | 0.069 ± 0.65

Substance | amyloid nucleation score
NYSGLDERPVWVFWYLVFEY | -1.09 ± 1.1
NYSGYLLNASVRRTMRRRVF | -1.18 ± 0.47
NYSVWVIPVFMDEHIVLFMY | 5.8 ± 0.071
NYSYMENYICQLACKTGEAG | 5.88 ± 0.084
NYSYMSMHTSCLSKTPSSRA | -1.42 ± 1.1
NYTNVRERGYMRVEYDMSIT | 0.202 ± 0.56
PAIISFQYLFGRRSELEKM | 5.572 ± 0.047
PALTIEIMSYGASQHGFSLV | 0.367 ± 0.28
PATDPWCS | -0.14 ± 0.25
PAVFRHHPGKHVRHGSSTTT | 0.73 ± 0.28
PCCQEACDGCEGNRDLPGEA | 1.65 ± 0.32
PCLMEGFTS | -0.849 ± 0.64
PDFFCRSVVNQKMYLKTLHY | -1.03 ± 1.1
PDVPIFCPYAAAMKVAVCYR | -0.526 ± 0.76
PEGPERFVFATWPRMHMPSY | inactive
PELSNDQGYFVDSVKSGKVE | -0.036 ± 0.48
PEPFS | inactive
PFACYGFCRM | -1.29 ± 0.76
PFGKGKEHIKL | inactive
PFLSLAVFVTQAVVEHCCRC | 7.48 ± 0.085
PFSCITRLQ | 2.48 ± 0.1
PFSIVIVANFYIITYEACFL | 2.85 ± 0.14

Substance | amyloid nucleation score
PFSLVTSITFFWSIMCIYAM | 0.57 ± 0.81
PGDMLSGAFHMCISNCVTSC | 0.319 ± 0.38
PGHWLTNINISFSACKCLMM | 8.227 ± 0.045
PGLPEERHNCKTYCHRTSRP | 0.016 ± 0.34
PGVMHICLCRTHTSRCKCTL | 0.402 ± 0.57
PGVRISVPVLLAWNCYC | 8.558 ± 0.071
PHLTMFKARYIDTFAPRS | -0.672 ± 0.5
PIFSSKLSGRGR | -0.059 ± 0.55
PIGHLFQET | 0.92 ± 0.24
PILLMSTVTRRLVRCNVAFK | 0.391 ± 0.51
PIRVSSSVVSWYYFGNSRIW | -1.09 ± 0.62
PITLTRASALLCKYYAFWTF | 1.14 ± 0.37
PIWWLL | -0.822 ± 0.79
PKRLKSSYLD | -0.208 ± 0.37
PKVLGFFK | inactive
PKYTDCCFFNLILIGWSVFP | 5.272 ± 0.052
PLCLSDNYMTIQSSSILNAH | -0.205 ± 0.41
PLLFIMANFCLVVLHVSFYN | -0.639 ± 1
PLPGFRIMFLWRQNALPVQP | 0.196 ± 0.64
PMCYSVSSNLWVTTLQWGYL | 2.56 ± 0.14
PMVFNHG | -0.398 ± 1
PNACPFWCLGRV | -0.439 ± 0.63

Substance | amyloid nucleation score
PNIIGKLGNLNSLVLC | 0.382 ± 0.8
PNSPRMNESLSFIFPGDVSG | -0.474 ± 1
PNSYAETDWISLCSDSMSWH | 0.721 ± 0.74
PNTSKGGDGYSTWGTSQASS | 0.03 ± 0.46
PPHCTGHLV | 0.183 ± 1
PPIRVYNLSSTYPMDMSSQR | -0.8 ± 0.27
PQSWCFFPNFDKGLVLVRRQ | 0.801 ± 0.82
PQTLCINISFDYRYMNQVLD | 7.449 ± 0.074
PRCNGHY | inactive
PRCRVAR | 0.305 ± 1
PRCYLVLKFYSQCLFSVHTF | inactive
PRFIQGYILRNLCARMLKYS | -0.368 ± 0.39
PRQHYSNRGFCFSFILGVGM | -0.327 ± 0.34
PRSVFCCLDGRHTPRKMPIY | -0.47 ± 0.74
PRVNILWYNRMLYAWFRPVV | -1.21 ± 0.55
PSDSLVYVYDL | -0.41 ± 0.38
PSIRWNVIIAMSYLQS | 1.89 ± 0.16
PSMQVVKRVINFG | inactive
PSQAGKIMVLKNTRWNHRDC | 1.01 ± 0.52
PSRPCGLRELAYADSAKQLW | 1.15 ± 0.34
